Reference: PMC5743070 (The Journal of Biological Chemistry, 2017)

What was measured:
TTD (UHRF1_121–286) [1] = target: T1, TTD (UHRF1_121–286) (Homo sapiens, UniProt Q96T88); test: HSQC competition of BPC and linker peptide on TTD; format: binding; conditions: BPC 2.4 mM, linker peptide 3.0 mM, 5% DMSO; I211, I212 and E281 resonances in HSQC
T1 construct: UHRF1_121–286 corresponding to the TTD; made in house
T1 sequence (Q96T88 121-286): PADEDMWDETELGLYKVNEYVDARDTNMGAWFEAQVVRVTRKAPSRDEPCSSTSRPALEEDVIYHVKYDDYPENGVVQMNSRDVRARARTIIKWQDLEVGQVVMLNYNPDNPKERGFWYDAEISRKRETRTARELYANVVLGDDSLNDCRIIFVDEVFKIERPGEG
Method: NMR samples were buffered in 20 mM sodium phosphate (pH 7.5), 150 mM NaCl, 5 mM DTT, 5 mM β-mercaptoethanol, 2 mM TCEP, and 10 μM ZnSO4. The protein concentration was between 200 and 300 μM for all samples. The data were collected at 25 °C on Bruker spectrometers equipped with cryoprobes and operating at 500, 600, or 800 MHz. The assignment of backbone TTD–PHD resonances was accomplished using the ABACUS method ([29]) for which standard backbone and ^15N-edited NOESY spectra were collected using ^15N/^13C/^2H- or ^15N/^13C-labeled protein. All 3D experiments were acquired using non-uniform sampling and processed using the software MDDGUI ([30]) or qMDD ([31]). ^15N-Labeled TTD–PHD was used to acquire ^15N T1 and T2 relaxation and ^1H-^15N heteronuclear NOE measurements ([32]) collected using standard Bruker pulse schemes in an interleaved manner. For T1 measurements, the variable delay was set to 0.1, 0.4, 0.8, 1.5, 2.0, 2.5, 3.5, and 5 s. For T2 measurements, the variable delay was set to 16, 32, 48, 64, 80, 96, 128, and 144 ms. The D1 was 3 s for all experiments. Reported values were the average from two measurements. All spectra were processed using NMRPipe ([33]) and analyzed with SPARKY ([34]). […]
trated by the perturbation of I211, I212 and E281 resonances in HSQC spectra of the TTD in a competition assay. […]

TTD (UHRF1_121–286) [2] = target: T1, TTD (UHRF1_121–286); test: (1H-15N) HSQC NMR titration of TTD; format: binding; conditions: (1H-15N) HSQC spectra of TTD
Text: We designed a fragment library containing 2,040 compounds that was initially screened against isolated TTD (UHRF1_121–286) using a fluorescence polarization (FP) assay that tracked the displacement of a N-terminally tagged H3K9me3 peptide (H3K9me3(1–25)). From this screen, eight putative TTD-binding hits were identified. […] Because of limited commercial availability of the tricyclic amine, we focused only on BPC. The binding of this compound occurs close to (or within) the Arg^296-binding pocket; we observe significant perturbation of Trp^238 and Phe^278 resonances that form part of the pocket, and in Gly^236, which is directly adjacent to it (Fig. 4A and supplemental Fig. S5). We also see chemical shift changes in non-surface exposed residues that are close to or are in contact with the groove.
(§1) NMR samples were buffered in 20 mM sodium phosphate (pH 7.5), 150 mM NaCl, 5 mM DTT, 5 mM β-mercaptoethanol, 2 mM TCEP, and 10 μM ZnSO4. The protein concentration was between 200 and 300 μM for all samples. The data were collected at 25 °C on Bruker spectrometers equipped with cryoprobes and operating at 500, 600, or 800 MHz. The assignment of backbone TTD–PHD resonances was accomplished using the ABACUS method ([29]) for which standard backbone and ^15N-edited NOESY spectra were collected using ^15N/^13C/^2H- or ^15N/^13C-labeled protein. All 3D experiments were acquired using non-uniform sampling and processed using the software MDDGUI ([30]) or qMDD ([31]). ^15N-Labeled TTD–PHD was used to acquire ^15N T1 and T2 relaxation and ^1H-^15N heteronuclear NOE measurements ([32]) collected using standard Bruker pulse schemes in an interleaved manner. For T1 measurements, the variable delay was set to 0.1, 0.4, 0.8, 1.5, 2.0, 2.5, 3.5, and 5 s. For T2 measurements, the variable delay was set to 16, 32, 48, 64, 80, 96, 128, and 144 ms. The D1 was 3 s for all experiments. Reported values were the average from two measurements. All spectra were processed using NMRPipe ([33]) and analyzed with SPARKY ([34]).
Figure S5 (related to Fig. 4)
Binding of BPC in the groove of TTD. […]
labeled (at the N-terminus) H3K9me3(1-25) peptide, (B) ITC, and (C) DSF. (D) KD estimates of BPC bind-ing based on I211 and Y239 amide peak movement (where Δ(ppm) = ((ΔδHN)2 + (ΔδN/6.5)2 )1⁄2) in (1H-15N) HSQC spectra when the TTD is titrated with BPC. […]
as a function of TTD sequence resulting from BPC (blue) or PBR peptide (red) binding. (F) HSQC overlays […]
ment:protein), and PBR peptide ratios (bottom spectrum - from 1:1 to 5:1 peptide:protein). The protein con-centration was ~250 µM for all NMR experiments, and the DMSO concentration was 5% for NMR titrations […]
(§2) (1 picture or pasted object on this page, not shown here)

TTD–PHD (UHRF1_126–366) [3] = target: T2, TTD–PHD (UHRF1_126–366) (Homo sapiens, UniProt Q96T88); test: ITC of H3 peptide binding to TTD–PHD
T2 construct: His tag (TEV-cleavable) (N); made in house
T2 sequence (Q96T88 126-366): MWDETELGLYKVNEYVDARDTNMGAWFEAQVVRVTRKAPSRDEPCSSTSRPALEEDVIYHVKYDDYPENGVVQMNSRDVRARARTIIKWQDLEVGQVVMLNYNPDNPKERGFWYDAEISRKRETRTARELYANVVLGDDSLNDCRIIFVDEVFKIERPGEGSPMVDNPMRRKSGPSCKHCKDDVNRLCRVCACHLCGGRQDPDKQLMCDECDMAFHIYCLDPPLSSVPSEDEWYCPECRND
Method: A preliminary peptide injection of 0.06 μl was followed by subsequent 2-μl injections into the sample cell containing 167 μl of 50 μM TTD–PHD. Where indicated, 1.5 mM BPC or 1.5 mM PBR peptide was included in the injection syringe and sample cell. The reported KD and n values are based on the average from two measurements. For ITC measurements of TTD (UHRF1_121–286) interaction with BPC, the protein was buffered in 20 mM Tris (pH 7.4), 50 mM NaCl, and 5% DMSO. BPC was brought to a concentration of 2.5 mM and injected into the sample cell containing 40 μM protein. The data were acquired on a Nano ITC from TA Instruments at 25 °C and fitted with an independent-binding site model using NanoAnalyze software (v3.7.0).
ITC curves showing TTD-PHD binding to methylated (red) and unmethylated (black) H3 peptide.
as §2

TTD–PHD (UHRF1_126–366) [4] = target: T2, TTD–PHD (UHRF1_126–366); test: (1H-15N) TROSY NMR titration of TTD–PHD; format: binding
Method: Exchange broadening is clearly observed for Arg^282, Gly^284, Asp^291, Asn^292, Met^294, and Ser^301 amide resonances at 1:3 protein/BPC ratios, with perturbations also seen with Gly^286 and Gly^299 (Fig. 4 and supplemental Fig. S6).
as §1

Substance | competition for the TTD groove (TTD (UHRF1_121–286) [1]) | binding site on TTD by amide peak movement (TTD (UHRF1_121–286) [2]) | effect on TTD–PHD binding affinity for the histone peptide (TTD–PHD (UHRF1_126–366) [3]; 1.5 mM BPC (4% DMSO) or 1.5 mM PBR peptide, H3K9me3(1–15)) | increase of KD for H3K9me3 (effect of added ligand) (TTD–PHD (UHRF1_126–366) [3]; 1.5 mM BPC or PBR peptide in syringe and cell, vs apo TTD–PHD) | effect on linker resonances of TTD–PHD (TTD–PHD (UHRF1_126–366) [4]; (1H-15N) TROSY, ~250 μM protein/750 μM ligand) | effect on TTD–PHD conformation (TTD–PHD (UHRF1_126–366) [4]; Fig. 4)
linker peptide: linker peptide (corresponding to UHRF1286-300) (GSPMVDNPMRRKSGP; UniProt Q96T88 286-300, looked up, fragment) [reference compound] | compete directly for the TTD groove |  |  |  |  | 
PBR peptide: 15-residue peptide corresponding to the PBR (UHRF1_643–657) (GKGKWKRKSAGGGPS; UniProt Q96T88 643-657, looked up, fragment) [reference compound] |  | binding in the groove | reduces the TTD–PHD binding affinity for the histone peptide | ~5 fold | strikingly similar peak broadening/perturbation pattern | promote open TTD–PHD conformations
